Measurements from article PMC9482650, “Quantitative fragmentomics allow affinity mapping of interactomes” (Nature Communications, 2022).

T1: MPP2, Q14168
T1 sequence (Q14168 180-250, limits assumed, looked up): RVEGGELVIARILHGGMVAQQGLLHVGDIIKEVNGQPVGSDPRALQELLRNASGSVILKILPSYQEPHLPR

T2: FRMPD1, Q5SYB0
T2 sequence (Q5SYB0 52-145, limits assumed, looked up): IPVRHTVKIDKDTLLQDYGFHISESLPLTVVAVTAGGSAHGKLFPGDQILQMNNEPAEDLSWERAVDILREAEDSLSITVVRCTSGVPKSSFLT

T3: SNTA1, Q13424
T3 sequence (Q13424 82-180, limits assumed, looked up): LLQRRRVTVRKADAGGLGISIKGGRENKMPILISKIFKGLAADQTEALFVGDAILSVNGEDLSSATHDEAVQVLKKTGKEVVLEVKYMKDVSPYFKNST

T4: PARD3B_1, Q8TEW8
T4 sequence (Q8TEW8 196-299, limits assumed, looked up): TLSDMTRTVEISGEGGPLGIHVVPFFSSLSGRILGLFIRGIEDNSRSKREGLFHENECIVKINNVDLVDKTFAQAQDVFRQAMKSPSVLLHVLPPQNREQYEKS

T5: DLG3_2, Q92796
T5 sequence (Q92796 221-321, limits assumed, looked up): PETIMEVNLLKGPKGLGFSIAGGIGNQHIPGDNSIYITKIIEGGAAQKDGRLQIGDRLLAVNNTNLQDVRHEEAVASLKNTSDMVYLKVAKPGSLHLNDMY

T6: ARHGAP21, Q5T5U3
T6 sequence (Q5T5U3 45-169, limits assumed, looked up): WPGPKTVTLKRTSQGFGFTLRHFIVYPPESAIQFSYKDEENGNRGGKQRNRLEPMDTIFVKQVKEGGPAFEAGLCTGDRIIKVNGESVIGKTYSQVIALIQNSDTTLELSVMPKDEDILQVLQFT

T7: RADIL, Q96JH8
T7 sequence (Q96JH8 971-1071, limits assumed, looked up): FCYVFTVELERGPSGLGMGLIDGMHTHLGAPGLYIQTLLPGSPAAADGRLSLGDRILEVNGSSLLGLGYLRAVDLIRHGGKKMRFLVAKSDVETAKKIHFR

T8: SNTG2, Q9NY99
T8 sequence (Q9NY99 68-166, limits assumed, looked up): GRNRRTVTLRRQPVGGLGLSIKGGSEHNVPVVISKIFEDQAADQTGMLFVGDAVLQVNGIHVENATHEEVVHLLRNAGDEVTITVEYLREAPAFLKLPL

T9: APBA1_2, Q02410
T9 sequence (Q02410 742-832, limits assumed, looked up): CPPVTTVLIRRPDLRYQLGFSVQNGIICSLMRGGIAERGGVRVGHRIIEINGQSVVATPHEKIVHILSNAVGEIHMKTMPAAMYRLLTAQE

T10: SIPA1L2, Q9P2F8
T10 sequence (Q9P2F8 945-1036, limits assumed, looked up): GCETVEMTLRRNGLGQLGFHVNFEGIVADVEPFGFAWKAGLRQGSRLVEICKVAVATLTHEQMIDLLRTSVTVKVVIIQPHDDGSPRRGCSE

T11: APBA2_2, Q99767
T11 sequence (Q99767 654-744, limits assumed, looked up): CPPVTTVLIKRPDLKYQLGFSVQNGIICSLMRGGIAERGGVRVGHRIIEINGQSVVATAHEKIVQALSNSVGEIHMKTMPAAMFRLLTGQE

T12: MPP6, Q9NZW5
T12 sequence (Q9NZW5 125-219, limits assumed, looked up): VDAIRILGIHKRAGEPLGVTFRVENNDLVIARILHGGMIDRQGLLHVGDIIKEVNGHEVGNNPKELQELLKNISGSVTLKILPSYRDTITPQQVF


Tests used:
Assay in all cases: holdup assay
Design in all cases: key: below the threshold = too weak to quantify, mostly under pKd 3.1 to 4
Conditions in all cases: plain residues with an end cap or a label only (N-terminal biotin on a linker: ttds)
MPP2, Q14168 = target: T1, MPP2, Q14168
FRMPD1, Q5SYB0 = target: T2, FRMPD1, Q5SYB0
SNTA1, Q13424 = target: T3, SNTA1, Q13424
FRMPD2_2, Q68DX3 = target: FRMPD2_2, Q68DX3
PARD3B_1, Q8TEW8 = target: T4, PARD3B_1, Q8TEW8
DLG3_2, Q92796 = target: T5, DLG3_2, Q92796
HTRA1, Q92743 = target: HTRA1, Q92743
ARHGAP21, Q5T5U3 = target: T6, ARHGAP21, Q5T5U3
RADIL, Q96JH8 = target: T7, RADIL, Q96JH8
DLG5_1, Q8TDM6 = target: DLG5_1, Q8TDM6
DLG2_3, Q15700 = target: DLG2_3, Q15700
SNTG2, Q9NY99 = target: T8, SNTG2, Q9NY99
APBA1_2, Q02410 = target: T9, APBA1_2, Q02410
IL16_3, Q14005 = target: IL16_3, Q14005
PICK1, Q9NRD5 = target: PICK1, Q9NRD5
GRIP2_5, Q9C0E4 = target: GRIP2_5, Q9C0E4
DLG4_3, P78352 = target: DLG4_3, P78352
SIPA1L2, Q9P2F8 = target: T10, SIPA1L2, Q9P2F8
APBA2_2, Q99767 = target: T11, APBA2_2, Q99767
MAGI2_5, Q86UL8 = target: MAGI2_5, Q86UL8
DLG2_2, Q15700 = target: DLG2_2, Q15700
PDLIM1, O00151 = target: PDLIM1, O00151
MPP6, Q9NZW5 = target: T12, MPP6, Q9NZW5
Inadl_9, Q8NI35 = target: Inadl_9, Q8NI35
LIMK2, P53671 = target: LIMK2, P53671
FRMPD3, Q5JV73 = target: FRMPD3, Q5JV73
FRMPD3, Q5JV73, sequence (Q5JV73 12-100): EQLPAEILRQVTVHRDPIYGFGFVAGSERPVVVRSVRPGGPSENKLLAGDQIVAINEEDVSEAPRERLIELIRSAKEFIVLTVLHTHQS

DLG4_3, P78352, sequence (P78352 306-403): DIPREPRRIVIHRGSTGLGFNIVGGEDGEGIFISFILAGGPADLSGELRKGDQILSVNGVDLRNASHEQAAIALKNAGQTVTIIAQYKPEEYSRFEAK
FRMPD2_2, Q68DX3, sequence (Q68DX3 944-1038): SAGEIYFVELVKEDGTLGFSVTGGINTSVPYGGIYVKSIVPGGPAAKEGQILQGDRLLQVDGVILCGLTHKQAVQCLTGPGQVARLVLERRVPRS
HTRA1, Q92743, sequence (Q92743 360-477): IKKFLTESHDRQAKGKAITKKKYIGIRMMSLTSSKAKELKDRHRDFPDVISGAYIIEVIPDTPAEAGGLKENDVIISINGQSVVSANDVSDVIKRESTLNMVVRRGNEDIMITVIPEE
DLG5_1, Q8TDM6, sequence (Q8TDM6 617-713): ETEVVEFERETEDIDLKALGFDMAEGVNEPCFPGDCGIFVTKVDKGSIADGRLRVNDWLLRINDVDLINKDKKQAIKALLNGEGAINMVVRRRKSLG
MAGI2_5, Q86UL8, sequence (Q86UL8 915-1017): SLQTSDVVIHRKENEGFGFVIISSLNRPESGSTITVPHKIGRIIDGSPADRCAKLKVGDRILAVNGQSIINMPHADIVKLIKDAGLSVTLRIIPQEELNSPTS
LIMK2, P53671, sequence (P53671 143-248): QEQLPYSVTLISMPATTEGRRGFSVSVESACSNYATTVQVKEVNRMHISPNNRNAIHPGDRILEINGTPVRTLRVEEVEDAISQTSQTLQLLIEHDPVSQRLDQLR
IL16_3, Q14005, sequence (Q14005 1107-1207): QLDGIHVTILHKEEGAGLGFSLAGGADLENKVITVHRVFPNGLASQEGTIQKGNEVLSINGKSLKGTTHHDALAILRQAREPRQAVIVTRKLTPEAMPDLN
GRIP2_5, Q9C0E4, sequence (Q9C0E4 544-642): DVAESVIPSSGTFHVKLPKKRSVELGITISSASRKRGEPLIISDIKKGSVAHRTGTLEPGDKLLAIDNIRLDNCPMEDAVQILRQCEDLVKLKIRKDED
PDLIM1, O00151, sequence (O00151 1-87): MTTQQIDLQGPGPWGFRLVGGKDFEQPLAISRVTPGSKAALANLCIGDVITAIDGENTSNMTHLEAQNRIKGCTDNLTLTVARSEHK
Inadl_9, Q8NI35, sequence (Q8NI35 1530-1615): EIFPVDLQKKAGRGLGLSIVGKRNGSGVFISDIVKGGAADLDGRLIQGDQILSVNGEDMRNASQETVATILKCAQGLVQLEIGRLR
PICK1, Q9NRD5, sequence (Q9NRD5 17-115): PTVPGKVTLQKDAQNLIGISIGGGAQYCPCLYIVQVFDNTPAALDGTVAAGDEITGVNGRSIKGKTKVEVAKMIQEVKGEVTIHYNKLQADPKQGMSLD

| pKd (MPP2, Q14168) | pKd (FRMPD1, Q5SYB0) | pKd (SNTA1, Q13424) | pKd (FRMPD2_2, Q68DX3) | pKd (PARD3B_1, Q8TEW8) | pKd (DLG3_2, Q92796) | pKd (HTRA1, Q92743) | pKd (ARHGAP21, Q5T5U3) | pKd (RADIL, Q96JH8) | pKd (DLG5_1, Q8TDM6) | pKd (DLG2_3, Q15700) | pKd (SNTG2, Q9NY99) | pKd (APBA1_2, Q02410) | pKd (IL16_3, Q14005) | pKd (PICK1, Q9NRD5) | pKd (GRIP2_5, Q9C0E4) | pKd (DLG4_3, P78352) | pKd (SIPA1L2, Q9P2F8) | pKd (APBA2_2, Q99767) | pKd (MAGI2_5, Q86UL8) | Binder | also measured |
| --- | --- | --- | --- | --- | --- | --- | --- | --- | --- | --- | --- | --- | --- | --- | --- | --- | --- | --- | --- | --- | --- |
| below the threshold | below the threshold | 4.38 | below the threshold | below the threshold | below the threshold | below the threshold | 4.48 | below the threshold | below the threshold | 3.8 | 3.84 | below the threshold | below the threshold | below the threshold | below the threshold | below the threshold | below the threshold | below the threshold | 3.48 | QSARYRDTEL [TJP2, Q9UDY2] | pKd (DLG2_2, Q15700): 3.61; pKd (PDLIM1, O00151): 3.69; pKd (MPP6, Q9NZW5): below the threshold; pKd (Inadl_9, Q8NI35): below the threshold; pKd (LIMK2, P53671): below the threshold; pKd (FRMPD3, Q5JV73): below the threshold |
| below the threshold | below the threshold | 4.06 | below the threshold | below the threshold | 4 | below the threshold | 3.68 | below the threshold | below the threshold | below the threshold | 4.39 | 3.79 | below the threshold | below the threshold | below the threshold | below the threshold | below the threshold | below the threshold | 4.37 | GQDSREETQL [KCNT2, Q6UVM3] | pKd (DLG2_2, Q15700): 4.47; pKd (PDLIM1, O00151): below the threshold; pKd (MPP6, Q9NZW5): below the threshold; pKd (Inadl_9, Q8NI35): below the threshold; pKd (LIMK2, P53671): below the threshold; pKd (FRMPD3, Q5JV73): below the threshold |
| below the threshold | below the threshold | 4.52 | 3.72 | below the threshold | 4.64 | below the threshold | below the threshold | below the threshold | below the threshold | 4.71 | 4.53 | 3.6 | below the threshold | below the threshold | below the threshold | 4.51 | below the threshold | below the threshold | 4 | VLRLQSETSV [VANGL1, Q8TAA9] | pKd (DLG2_2, Q15700): 4.58; pKd (PDLIM1, O00151): below the threshold; pKd (MPP6, Q9NZW5): below the threshold; pKd (Inadl_9, Q8NI35): below the threshold; pKd (LIMK2, P53671): below the threshold; pKd (FRMPD3, Q5JV73): below the threshold |
